Values quoted from earlier work in publication PMC8036930.

Target: albumin (Rattus norvegicus) (UniProt P02770)
Sequence of UniProt P02770 (P02770 25-608): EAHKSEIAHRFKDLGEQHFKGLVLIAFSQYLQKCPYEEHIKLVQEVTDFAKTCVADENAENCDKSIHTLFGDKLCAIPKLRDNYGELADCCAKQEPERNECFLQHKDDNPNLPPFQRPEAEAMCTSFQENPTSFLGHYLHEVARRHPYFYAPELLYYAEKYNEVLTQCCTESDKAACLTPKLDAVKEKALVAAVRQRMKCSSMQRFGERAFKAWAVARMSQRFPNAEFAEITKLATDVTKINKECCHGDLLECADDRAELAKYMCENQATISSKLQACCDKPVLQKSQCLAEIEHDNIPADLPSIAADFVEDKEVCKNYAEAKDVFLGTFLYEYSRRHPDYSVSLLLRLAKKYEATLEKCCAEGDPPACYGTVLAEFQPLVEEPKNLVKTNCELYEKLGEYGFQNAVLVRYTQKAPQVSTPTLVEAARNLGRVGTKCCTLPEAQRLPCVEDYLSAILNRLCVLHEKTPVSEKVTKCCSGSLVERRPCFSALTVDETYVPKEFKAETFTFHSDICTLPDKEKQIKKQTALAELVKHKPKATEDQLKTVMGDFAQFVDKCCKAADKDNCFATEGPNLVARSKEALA

Kd: 630 nM
Substance: cubilin (from UniProt O70244)
